The values below come from article PMC9816786 (2022).

This experiment deals with T1, PCSK9 (Homo sapiens (Human), UniProt Q8NBP7).
T1 chain: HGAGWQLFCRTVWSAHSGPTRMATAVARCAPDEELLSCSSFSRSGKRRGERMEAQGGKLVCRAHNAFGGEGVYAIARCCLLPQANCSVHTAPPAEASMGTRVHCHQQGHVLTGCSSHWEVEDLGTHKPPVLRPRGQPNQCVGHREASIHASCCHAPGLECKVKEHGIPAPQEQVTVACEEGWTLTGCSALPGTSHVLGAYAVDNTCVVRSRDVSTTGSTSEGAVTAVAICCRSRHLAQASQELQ
The experiment in a line: BLI; pH 7.5.

B1: CAP1 (protein)
chain: ADMQNLVERLERAVGRLEAVSHTSDMHRGYADSPSKAGAAPYVQAFDSLLAGPVAEYLKISKEIGGDVQKHAEMVHTGLKLERALLVTASQCQQPAENKLSDLLAPISEQIKEVITFREKNRGSKLFNHLSAVSESIQALGWVAMAPKPGPYVKEMNDAAMFYTNRVLKEYKDVDKKHVDWVKAYLSIWTELQAYIKEFHTTGLAWSKTGPVAKELSGLPSGPSAGSCPPPPPPCPPPPPVSTISCSYESASRSSLFAQINQGESITHALKHVSDDMKTHKNPALKAQSGPVRSGPKPFSAPKPQTSPSPKRATKKEPAVLELEGKKWRVENQENVSNLVIEDTELKQVAYIYKCVNTTLQIKGKINSITVDNCKKLGLVFDDVVGIVEIINSKDVKVQVMGKVPTISINKTDGCHAYLSKNSLDCEIVSAKSSEMNVLIPTEGGDFNEFPVPEQFKTLWNGQKLVTTVTEIAG
In turn, B1 showed a Kd of 1360 nM.

Broadly, the Kd is the concentration at which binding is half-saturated. A lower Kd goes with a tighter complex.
